Here are results for 6 molecules from patent US20170355769A1 (AbbVie / Abbott, published 2017).

Experiment [1] addresses T1, Human B7-H3-ECD (His tag) (human, UniProt Q5ZPR3 29-461).
T1 construct: SPR analyte; also called huB7-H3; soluble ECD of human B7-H3
T1 sequence: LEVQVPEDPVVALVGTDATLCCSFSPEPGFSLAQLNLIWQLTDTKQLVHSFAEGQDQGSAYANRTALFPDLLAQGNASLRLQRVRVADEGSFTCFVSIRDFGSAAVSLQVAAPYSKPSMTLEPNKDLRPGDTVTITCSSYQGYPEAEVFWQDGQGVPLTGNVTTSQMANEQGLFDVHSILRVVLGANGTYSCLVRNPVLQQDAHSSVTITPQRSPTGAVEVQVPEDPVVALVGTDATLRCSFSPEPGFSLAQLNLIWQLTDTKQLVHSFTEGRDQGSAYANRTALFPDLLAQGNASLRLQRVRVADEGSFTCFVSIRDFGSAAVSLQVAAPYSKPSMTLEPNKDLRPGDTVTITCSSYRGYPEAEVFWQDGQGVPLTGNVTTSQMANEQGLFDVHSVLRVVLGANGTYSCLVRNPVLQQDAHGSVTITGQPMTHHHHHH
Briefly: SPR Biacore, naked mAb. An excerpt:
(§1) Biacore T200 SPR instruments were used to measure the binding kinetics of human B7-H3 (analyte) binding to various mAbs (ligands). The assay format was Fc-based capture via immobilized anti-mouse (Fc) (Pierce 31170) or immobilized anti-human (Fc) (Pierce 31125). A standard amine coupling protocol was employed to immobilize the capture reagents via primary amines to the carboxy-methyl (CM) dextran surface of CM5 sensorchips (Biacore); capture antibodies were coupled to a level of approximately 5000RU. For binding kinetic measurements the assay buffer was HBS-EP+ (Biacore): 10 mM Hepes, pH7.4, 150 mM NaCl, 3 mM EDTA, 0.05% polysorbate 20. During the assay, all measurements were referenced against the capture surface alone. Each assay cycle consisted of the following steps: 1) Capture of ligand to approximately 50RU; 2) Analyte injection over both reference and test surface, 240 μL at 80 μL/min, after which the dissociation was monitored for 900 seconds at 80 μL/min; 3) Regeneration of capture surface with low pH glycine. […] Data were processed and fit to a 1:1 binding model using Biacore T200 Evaluation Software to determine the binding kinetic rate constants, kₐ (on-rate) and kd (off-rate), and the equilibrium dissociation constant (affinity, KD).
These variants were further characterized for binding by SPR and as ADCs conjugated to the Bcl-xL inhibitor synthon (linker warhead) CZ. […] An ADC comprising chAb3 conjugated to synthon CZ was used as a control.
Background: Surface plasmon resonance follows binding to a sensor surface in real time, without labels.

Experiment [2] deals with T1, Human B7-H3-ECD (His tag). Briefly: SPR Biacore, naked mAb.
From the text: as §1
The source holds these as a separate data set.

The target in experiment [3] is T2, Human full length B7-H3 (human, UniProt Q5ZPR3 29-534).
T2 construct: On 3T12 fibroblasts expressing full length human B7-H3 or on NCI-H1650 cells; signal peptide residues 1-28 stated; also called huB7-H3; CD276
T2 sequence: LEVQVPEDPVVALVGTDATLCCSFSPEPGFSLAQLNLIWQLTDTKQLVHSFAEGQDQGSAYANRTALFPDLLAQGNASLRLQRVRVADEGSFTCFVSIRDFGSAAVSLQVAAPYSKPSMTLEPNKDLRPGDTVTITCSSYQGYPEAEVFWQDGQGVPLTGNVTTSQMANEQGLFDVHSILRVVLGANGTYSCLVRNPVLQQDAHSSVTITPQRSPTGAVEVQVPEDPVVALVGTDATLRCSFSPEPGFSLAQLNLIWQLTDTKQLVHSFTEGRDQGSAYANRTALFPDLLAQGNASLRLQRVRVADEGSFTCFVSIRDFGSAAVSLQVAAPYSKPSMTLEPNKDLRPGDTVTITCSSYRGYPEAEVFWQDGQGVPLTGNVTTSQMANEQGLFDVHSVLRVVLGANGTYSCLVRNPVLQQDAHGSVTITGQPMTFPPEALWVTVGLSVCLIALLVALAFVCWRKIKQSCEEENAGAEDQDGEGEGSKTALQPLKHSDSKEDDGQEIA
Briefly: FACS, NCI-H1650 cells. Background: In flow cytometry, cells or beads pass a laser one at a time.

Experiment [4] concerns the target T1, Human B7-H3-ECD (His tag). The experiment in a line: SPR Biacore, naked mAb.
From the text: as §1, with “KD). […]” for “KD).”
The source holds these as a separate data set.

The target of experiment [5] is T3, hB7-H3 (ELISA antigen of Tables 17 and 20) (human, UniProt Q5ZPR3 29-466, limits assumed).
T3 sequence: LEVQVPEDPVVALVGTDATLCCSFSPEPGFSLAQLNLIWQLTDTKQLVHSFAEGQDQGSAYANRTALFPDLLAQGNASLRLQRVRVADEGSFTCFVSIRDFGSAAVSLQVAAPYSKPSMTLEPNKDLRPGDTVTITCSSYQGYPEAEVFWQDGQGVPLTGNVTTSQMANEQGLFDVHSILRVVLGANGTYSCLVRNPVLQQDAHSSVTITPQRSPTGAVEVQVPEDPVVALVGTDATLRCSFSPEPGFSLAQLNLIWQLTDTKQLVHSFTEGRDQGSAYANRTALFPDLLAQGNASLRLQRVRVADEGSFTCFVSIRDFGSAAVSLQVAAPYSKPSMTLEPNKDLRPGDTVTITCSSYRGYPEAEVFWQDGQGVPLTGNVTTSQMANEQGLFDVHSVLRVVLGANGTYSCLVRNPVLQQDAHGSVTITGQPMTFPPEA
The experiment in a line: ELISA. (In an ELISA, binding on a coated surface is turned into a signal by an enzyme label.)

Experiment [6] deals with T2, Human full length B7-H3. The experiment in a line: FACS (Example 6 method). As to the method: (§2) Cells were harvested from flasks when approximately 80% confluent using Gibco® Cell Dissociation Buffer. Cells were washed once in PBS/1% FBS (FACS buffer) then resuspended at 2.5×10⁶ cells/mL in FACS buffer. 100 μL of cells/well were added to a round bottom 96-well plate. 10 μL of a 10× concentration of mAb/ADC (final concentrations are indicated the figures). Wells were washed twice with FACS buffer and resuspended in 50 μL of secondary Ab (AlexaFluor 488) diluted in FACS buffer. The plate was incubated at 4° C. for one hour and washed twice with FACS buffer. Cells were resuspended in 100 μL of PBS/1% formaldehyde and analyzed on a Becton Dickinson LSRII flow cytometer. Data was analyzed using WinList flow cytometry analysis software.
(§3) Nine huAb13 variants described in Examples 17 and 18 were generated and tested for binding to B7-H3 by FACS (according to methods described in Example 6).

Experiment [7] deals with T4, Cynomolgous B7-H3 on cells (cynomolgus).
T4 construct: whole, on cells; also called cyB7-H3; cyno B7-H3
The experiment in a line: FACS (Example 6 method). The protocol:
as §2, §3

In experiment [8] the target is T2, Human full length B7-H3. Briefly: FACS, cell surface human B7-H3 (as Example 6). As to the method: as §2
Nine anti-B7-H3 chimeric antibodies were conjugated to the Bcl-xL inhibiting (Bcl-xLi) synthon CZ (Example 2.1) using conjugation Method A described below. The resulting ADCs (anti-B7-H3 antibodies conjugated to synthon CZ) were tested for binding to cell surface human B7-H3 by FACS (as described in Example 6) and for cell cytotoxicity in cell lines expressing B7-H3. […] Table 6 provides cell surface binding and cytotoxicity activity of anti-B7-H3 chimera ADCs against breast cancer cell HCC38 expressing human B7-H3.

In experiment [9] the target is T2, Human full length B7-H3. Briefly: cell-based or functional assay.

Changes are numbered by the printed parent chain. Read-outs that look alike come from different tables or passages of the source.

B1: huAb3v2 (antibody, V domains shown)
VH: EVQLVQSGAEVKKPGSSVKVSCKASGYTFSSYWMHWVRQAPGQGLEWIGLIHPDSGSTNYNEMFKNRATLTVDRSTSTAYMELSSLRSEDTAVYYCAGGGRLYFDYWGQGTTVTVSS
VL: DIVMTQSPLSLPVTPGEPASISCRSSQSLVHSNGDTYLRWYLQKPGQSPQLLIYKVSNRFSGVPDRFSGSGSGTDFTLKISRVEAEDVGVYYCSQSTHVPYTFGGGTKVEIK
notes: humanized IgG
One may read the Kd as the equilibrium constant for the complex coming apart. On to B1, for which the figures for the dissociation constant Kd in [1] and in experiment [2] were 0.69 nM and 2.3 nM, respectively.

B2: chAb13 (antibody, IgG1, V domains shown)
VH: DVQLQESGPDLVKPSQSLSLTCTVTGYSITSGYSWHWIRQFPGNKLEWMGYIHSSGSTNYNPSLKSRISINRDTSKNQFFLQLNSVTTEDTATYYCAGYDDYFEYWGQGTTLTVSS
VL: DIVMTQSQKFMSTSVGDRVSVTCKASQNVGFNVAWYQQKPGQSPKALIYSASYRYSGVPDRFTGSGSGTDFTLTISNVQSEDLAEYFCQQYNSYPFTFGSGTKLEIK
notes: chimeric, huIgG1/k
A word on the EC50: it is the concentration giving half of the maximal effect. A higher EC50 goes with lower potency in that assay. Regarding B2, the EC50 in the experiment with Human full length B7-H3 [3] stood at 1.53 nM. In experiment [4], this molecule came in with a Kd of 5.7 nM.

B3: chAb13-CZ (antibody, IgG1, V domains shown)
VH: B2 VH
VL: B2 VL
modifications: synthon CZ on reduced interchain Cys
Turning to B3, the 50% effective concentration (EC50) in [5] was determined as 0.26 nM; in the experiment with Human full length B7-H3 [6], 6.27 nM; in experiment [7] it was 18.4 nM; in the experiment with Human full length B7-H3 [8], 1.49 nM.

B4: huAb13v1-CZ (antibody, human IgG1, kappa, L234A L235A, V domains shown)
VH: EVQLQESGPGLVKPSETLSLTCAVTGYSITSGYSWHWIRQFPGNGLEWMGYIHSSGSTNYNPSLKSRISISRDTSKNQFFLKLSSVTAADTAVYYCAGYDDYFEYWGQGTTVTVSS
VL: DIQMTQSPSSLSASVGDRVTITCKASQNVGFNVAWYQQKPGKSPKALIYSASYRYSGVPSRFSGSGSGTDFTLTISSLQPEDFAEYFCQQYNWYPFTFGQGTKLEIKR
modifications: synthon CZ on reduced interchain Cys
notes: ADC, DAR 4.0
Turning to B4, the figures for the EC50 in experiment [5] and in [7] were 0.12 nM and 10 nM, respectively. The “EC50 nM H1650 (tumor cell cytotoxicity)” value in the experiment with Human full length B7-H3 [9] worked out at 0.18 nM.

B5: huAb13v5-CZ (antibody, V domains shown)
VH: B4 VH
VL: DIQMTQSPSSLSASVGDRVTITCKASQNVGFNVAWYQQKPGKAPKLLIYSASYRYSGVPSRFSGSGSGTDFTLTISSLQPEDFATYYCQQYNWYPFTFGQGTKLEIK
modifications: synthon CZ on reduced interchain Cys
notes: ADC, DAR 3.4
For B5, the EC50 was 0.19 nM in [5], 5.21 nM with Human full length B7-H3 [6] and 10.6 nM in [7].

B6: huAb13v6-CZ (antibody, V domains shown)
VH: B4 VH
VL: B5 VL with Y87F
modifications: synthon CZ on reduced interchain Cys
notes: ADC, DAR 3.6
Regarding B6, the EC50 amounted to 0.14 nM in experiment [5], 5.83 nM in the experiment with Human full length B7-H3 [6] and 12.9 nM in experiment [7].
